Laboratory results as given in the supplement of paper PMC10567573.

B1: TSN (parent)
chain: FLAAEQDIREEIRKVVQSLEQTAR
B2: PDS5B (parent)
chain: IYKKYALQSAAGKDAAKQIAWIKD

Variants of: B1
Assay: protein stability index of a GFP-peptide fusion (GPS, HEK-293T) (PSI 1-6); higher = more stable
Conditions: c terminus: a fixed tail appended
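Also: lentivirally expressed fusions sorted by FACS into six bins by GFP to DsRed ratio, PSI derived from sequencing read proportions per bin multiplied by bin number.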

Protein stability index: each site, then its substitutions
Q21: P 2.41, M 1.68, N 1.83, W 1.87, D 1.78, H 1.8, I 2.27, E 1.9, V 1.5, A 2.14, C 2.01
L2: H 1.75, I 1.66, N 2.38, Y 1.85, E 1.68, S 1.91, W 2.02, G 3.19, K 2.11, Q 2.03, T 2.08, F 1.71, R 2.4, D 1.73
E5: W 2.58, G 2.87, N 3.04, C 2.25, H 2.26, R 2.66, L 3.1, Q 2.71, P 3, I 2.81, V 3.62, D 2.27, F 2.5
D7: K 1.51, I 2.93, M 1.73, E 1.89, A 2.18, T 1.75, P 2.22, H 2.78, W 2.21, S 1.79, L 3.27
E20: M 2.33, D 2.77, W 2.64, F 2.73, K 2.29, R 2.44, S 2.57, G 2.28, C 2.57, V 2.29, I 2.05, A 3.05
A3: M 1.72, G 1.87, N 1.88, H 2.1, P 2.17, S 2.5, Y 2.03, I 1.87, T 2, R 2.56, F 2.02, L 2.33, C 1.36, D 2.38
R13: L 1.83, V 1.66, Q 2.14, S 2.12, W 2.18, T 2.82, E 1.89, Y 2.73, C 1.94, P 3.64, H 2.7, M 2.07, D 1.84, I 1.43
F1: P 2.78, S 2.51, I 2.51, K 2.41, T 2.72, Q 2.23, E 2.45, G 2.26
V16: Y 2.83, C 2.13, T 1.68, E 2.21, M 1.73, Q 2.35, I 1.86, S 1.93, D 3.78, P 3.24, L 2.2, W 1.74, F 2.77
Q17: M 2.6, S 2.78, V 1.87, I 2.06, C 2.3, P 3.32, H 1.98, D 1.78, W 1.72, T 1.84, E 1.77, R 2.02, N 2.15
E10: C 2.47, F 1.35, H 2.5, V 2.39, A 2.11, K 2.15, G 2.92, P 3.21, R 2.06, D 1.63, W 2.08, I 1.53, S 2.33
R9: Y 2.29, F 2.4, H 1.49, Q 2.04, A 1.48, C 1.43, K 2.69, D 2.31, M 2.11
K14: E 2.36, C 2.07, R 3.3, N 2.52, F 1.48, L 2.13, S 2.07, A 2.08, G 2.03, T 2.25, Y 2.3, V 1.83, M 2.24, I 1.39, Q 2.05
Q6: G 1.84, W 2.75, S 2.25, D 1.85, T 1.46, V 1.79, K 1.78, H 1.63, A 2.01, F 1.87, I 2.1, Y 2.09, P 2.85, C 1.65, E 2.85
V15: G 3.29, T 2.61, A 3.48, F 2.96, D 3.62, H 2.8, W 2.4, R 3.31
L19: T 3.76, N 3.8, D 3.6, R 3.38, Q 3.39, F 2.14, V 3.02, P 3.9, Y 3.01, G 3.51, C 4.16, M 2.33, I 2.41, K 3.44
A23: Y 1.88, I 2.52, K 1.75, F 2.19, P 2.15, E 2.68, M 1.87, S 1.8, L 2.34, G 2.21, R 1.87, N 1.8, Q 1.96, T 1.76, W 2.1
A4: I 2.08, F 2.71, Y 2.03, K 1.71, R 1.73, E 2.51, T 2.13, P 2.01, H 1.57, G 2.04, D 2.11, N 1.52, L 2.29
I12: C 1.58, A 2.32, G 3.81, R 4.3, S 2.59, E 4.52, N 4.68, W 2.89, F 2.89, D 4.64, L 2.63, Y 3.2, K 3.98, P 4.45, H 4.29, M 1.94, V 2.1
I8: Q 3.16, R 3.15, K 2.56, A 3.02, Y 2.42, P 3.41, M 1.73, T 2.78, F 2.57, G 4.12, H 3.17, N 4.12, L 2.02
E11: Y 1.76, D 2.77, R 2.89, Q 2.29, N 3.58, M 1.9, S 2.47, T 2.43, W 1.59, L 2.19, A 2.02, C 2.21
T22: D 2.5, C 1.84, N 2.36, H 1.67, M 2.57, V 2.55, R 2.99, W 2.32, F 2.42, P 2.16, A 2.38, G 1.24, S 1.98
S18: H 1.71, E 2.54, W 1.62, V 2.52, M 2.22, A 1.67, F 1.39, I 1.92, Y 1.57, T 2.18, N 2.25, K 2.35, R 2.27
R24: D 2.4, Q 1.74, F 2.07, Y 1.94, L 2.49, W 1.69, A 2.26, P 2.28, E 2.13, V 1.7

Variants of: B2
Assay: as above
Conditions: c terminus: a fixed tail appended

Protein stability index of substitutions, site by site:
A11: D 3.03, Q 2.69
W21: T 3.55, L 2.19, F 2.31
K23: Q 2.23, A 2.11
I22: Y 2.52, A 3.14
Y2: L 2.34
K4: V 1.55
S9: C 2
D14: C 1.36, Y 1.85
K3: M 1.72
G12: I 1.69, C 1.6
A15: E 2.7, T 2.35
Q18: G 2.45
A16: H 2.29
D24: E 1.75
K17: I 1.79, F 1.32
A10: Q 2.4, D 2.53, M 1.83, H 1.84
L7: A 2.5
I1: S 2.63
A6: H 1.97
